For experiment [1], the target named is T1, human complement Factor H (human, UniProt P08603 19-1231).
T1 construct: In some experiments Factor H is the endogenous protein of normal human serum; also called fH; purified human Factor H (Quidel)
Briefly: steady state fluorescence, titration of purified human Factor H with rDMP1. The text has this:
(§1) Steady state fluorescence studies were accomplished by titrating purified human complement Factor H with rBSP, rOPN, and rDMP1 followed by excitation at 295 nm and monitoring emission between 300 and 450 nm. The emission profile of Factor H alone yields a peak at 347 nm. The addition of rBSP, rOPN, or rDMP1 in nm increments causes a relative fluorescent intensity quenching. Conversion of the fluorescent intensity titration into a binding curve by determining the fraction of binding sites occupied as the fractional change in fluorescence quenching at 347 nm yields a saturable binding curve. […] Given that normal serum concentration of Factor H is ~0.5 mg/mL it is probable that virtually all BSP, OPN, and DMP1 in serum will be complexed with Factor H.

The target in experiment [2] is T1, human complement Factor H. Briefly: steady state tryptophan fluorescence quenching, titration of Factor H with BSP.
Source text: as §1

Experiment [3] concerns the target T2, αVβ3 integrin on murine erythroleukemia (MEL) cells (murine (MEL cells), UniProt P43406 31-1044; O54890 26-787).
T2 construct: whole, on cells; also called integrins; cell surface integrins
Briefly: inferred from MEL cell complement lysis assay with GRGDS peptide, αVβ3 antibody and RGD->KAE mutant. As to the method: MEL cells prepared as in FIG. 8 were treated with normal rBSP (10 μg/mL), rBSP whose RGD sequence had been mutated to KAE ([…]), and either GRGDS (SEQ ID NO: 10) peptide (400 μM) followed by rBSP or an αVβ3 antibody (1:4000) followed by rBSP for 10 minutes prior to the addition of normal human serum. The cells were then incubated for 10 minutes after which cell viability determined using the MTT assay (A). A cohort of MEL cells were pretreated with rOPN (10 μg/mL) alone, GRGDS (SEQ ID NO: 10) peptide followed by rOPN, the αVβ3 antibody followed by rOPN, or an anti-CD44 antibody (Chemicon, Co.) followed by rOPN, or hyaluronan (HA) followed by rOPN (B). Cells were then treated with normal human serum and viability assayed as in FIG. 8. […] Statistical significance was determined by analysis of variance. Percent cell viability was determined using A560 absorbance values of various conditions and a control where no serum had been added (100% viable). […]
Murine erytliroleukemia (MEL) cells (a gift of Dr. Marilyn Farquhar, Univ. CA San Diego.) grown in DMEM containing 10% fetal bovine serum and 4 mM glutamine were rinsed three times with gelatin veronal buffer with Mg_2^+ and EGTA (GVB-MgEGTA, Sigma, St. Louis, Mo.). […] Cell viability was determined spectrophotometrically by absorbance at 560 nm.

T1 sequence (P08603 19-1231 limits assumed): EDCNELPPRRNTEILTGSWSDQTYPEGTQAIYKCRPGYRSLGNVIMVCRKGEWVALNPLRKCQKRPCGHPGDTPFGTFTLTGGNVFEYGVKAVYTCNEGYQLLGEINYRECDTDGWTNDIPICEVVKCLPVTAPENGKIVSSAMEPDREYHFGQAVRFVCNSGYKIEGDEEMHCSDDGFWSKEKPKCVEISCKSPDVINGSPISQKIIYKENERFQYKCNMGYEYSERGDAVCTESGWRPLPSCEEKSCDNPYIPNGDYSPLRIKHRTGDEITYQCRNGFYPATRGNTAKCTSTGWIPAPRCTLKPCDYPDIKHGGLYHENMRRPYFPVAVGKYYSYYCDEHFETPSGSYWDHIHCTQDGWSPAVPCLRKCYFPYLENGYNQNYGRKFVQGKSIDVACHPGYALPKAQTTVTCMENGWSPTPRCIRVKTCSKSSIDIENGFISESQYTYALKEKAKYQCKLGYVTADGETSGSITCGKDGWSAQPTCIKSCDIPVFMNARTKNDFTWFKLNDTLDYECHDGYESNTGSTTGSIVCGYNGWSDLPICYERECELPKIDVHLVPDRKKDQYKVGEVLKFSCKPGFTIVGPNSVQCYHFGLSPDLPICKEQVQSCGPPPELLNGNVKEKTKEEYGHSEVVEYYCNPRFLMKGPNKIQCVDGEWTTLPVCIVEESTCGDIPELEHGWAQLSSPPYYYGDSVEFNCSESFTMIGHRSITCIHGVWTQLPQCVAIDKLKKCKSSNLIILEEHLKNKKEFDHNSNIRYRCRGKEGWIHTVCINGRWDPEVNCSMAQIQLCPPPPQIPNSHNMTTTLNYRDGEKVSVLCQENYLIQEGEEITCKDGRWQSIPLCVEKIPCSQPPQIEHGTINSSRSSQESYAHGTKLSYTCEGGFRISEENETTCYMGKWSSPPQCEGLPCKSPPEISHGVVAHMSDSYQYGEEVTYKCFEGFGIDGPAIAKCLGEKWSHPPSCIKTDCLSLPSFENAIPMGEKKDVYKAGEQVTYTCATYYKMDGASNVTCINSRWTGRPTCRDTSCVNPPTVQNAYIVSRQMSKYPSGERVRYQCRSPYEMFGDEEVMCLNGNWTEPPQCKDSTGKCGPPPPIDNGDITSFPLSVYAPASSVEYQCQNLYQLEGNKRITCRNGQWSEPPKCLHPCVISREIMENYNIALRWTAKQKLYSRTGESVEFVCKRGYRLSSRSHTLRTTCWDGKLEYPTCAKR
T2 sequence (P43406 31-1044, chain 1 of 2): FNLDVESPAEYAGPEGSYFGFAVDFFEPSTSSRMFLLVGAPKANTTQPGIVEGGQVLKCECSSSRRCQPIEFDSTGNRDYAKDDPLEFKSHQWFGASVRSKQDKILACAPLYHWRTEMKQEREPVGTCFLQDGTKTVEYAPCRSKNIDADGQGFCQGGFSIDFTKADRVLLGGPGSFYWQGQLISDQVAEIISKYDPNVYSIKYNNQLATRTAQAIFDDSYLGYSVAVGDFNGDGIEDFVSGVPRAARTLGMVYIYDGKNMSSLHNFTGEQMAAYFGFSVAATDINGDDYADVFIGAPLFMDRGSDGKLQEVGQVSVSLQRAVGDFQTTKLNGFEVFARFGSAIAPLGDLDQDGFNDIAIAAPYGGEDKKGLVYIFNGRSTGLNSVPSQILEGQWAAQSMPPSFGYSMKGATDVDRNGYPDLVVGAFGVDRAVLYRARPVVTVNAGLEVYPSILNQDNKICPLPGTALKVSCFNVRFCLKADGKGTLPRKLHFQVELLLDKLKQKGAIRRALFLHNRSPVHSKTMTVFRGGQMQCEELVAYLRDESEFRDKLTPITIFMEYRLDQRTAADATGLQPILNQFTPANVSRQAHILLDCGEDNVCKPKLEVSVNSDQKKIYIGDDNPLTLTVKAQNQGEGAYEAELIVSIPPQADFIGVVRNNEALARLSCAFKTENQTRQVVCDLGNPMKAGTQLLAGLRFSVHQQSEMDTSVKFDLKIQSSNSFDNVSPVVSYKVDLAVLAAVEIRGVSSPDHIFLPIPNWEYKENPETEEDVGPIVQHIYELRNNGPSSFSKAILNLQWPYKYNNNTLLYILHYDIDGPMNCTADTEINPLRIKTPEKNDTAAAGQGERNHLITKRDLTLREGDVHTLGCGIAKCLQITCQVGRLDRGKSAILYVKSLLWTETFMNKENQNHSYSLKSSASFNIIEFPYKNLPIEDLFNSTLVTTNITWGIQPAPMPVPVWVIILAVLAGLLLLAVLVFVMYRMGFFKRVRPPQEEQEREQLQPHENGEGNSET
T2 sequence (O54890 26-787, chain 2 of 2): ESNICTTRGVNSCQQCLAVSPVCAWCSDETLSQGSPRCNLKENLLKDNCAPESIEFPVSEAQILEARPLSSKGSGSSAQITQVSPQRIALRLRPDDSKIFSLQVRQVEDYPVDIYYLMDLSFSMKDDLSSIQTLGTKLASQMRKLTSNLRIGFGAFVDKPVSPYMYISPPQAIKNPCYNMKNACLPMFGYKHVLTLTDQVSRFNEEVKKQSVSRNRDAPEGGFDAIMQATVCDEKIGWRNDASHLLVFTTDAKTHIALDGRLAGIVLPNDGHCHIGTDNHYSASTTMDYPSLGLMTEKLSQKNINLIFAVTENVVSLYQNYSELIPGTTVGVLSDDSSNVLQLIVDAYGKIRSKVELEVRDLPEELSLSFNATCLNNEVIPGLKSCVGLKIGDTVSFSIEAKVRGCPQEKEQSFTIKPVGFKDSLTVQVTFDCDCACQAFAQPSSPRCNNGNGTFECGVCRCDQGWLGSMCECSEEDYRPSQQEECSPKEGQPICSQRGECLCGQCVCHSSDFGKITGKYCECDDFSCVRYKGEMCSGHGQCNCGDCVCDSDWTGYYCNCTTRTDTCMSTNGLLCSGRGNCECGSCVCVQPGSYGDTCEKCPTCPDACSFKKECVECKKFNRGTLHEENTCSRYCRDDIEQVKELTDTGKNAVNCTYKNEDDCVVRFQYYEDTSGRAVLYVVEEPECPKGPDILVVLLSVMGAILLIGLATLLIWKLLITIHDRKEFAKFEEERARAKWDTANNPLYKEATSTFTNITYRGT

B1: recombinant dentin matrix protein 1 (rDMP1) (ligand)
chain: LPVTRYQNNESEDSEEWKGHLAQAPTPPLESSESSEGSKVSSEEQANEDPSDSTQSEEGLGSDDHQYIYRLAGGFSRSTGKGGDDKDDDEDDSGDDTFGDDDSGPGPKDRQEGGNSRLGSDEDSDDTIQASEESAPQGQDSAQDTTSESRELDNEDRVDSKPEGGDSTQESESEEHWVGGGSDGESSHGDGSELDDEGMQSDDPESIRSERGNSRMNSAGMKSKESGENSEQANTQDSGGSQLLEHPSRKIFRKSRISEEDDRSELDDNNTMEEVKSDSTENSNSRDTGLSQPRRDSKGDSQEDSKENLSQEESQNVDGPSSESSQEANLSSQENSSESQEEVVSESRGDNPDPTTSYVEDQEDSDSSEEDSSHTLSHSKSESREEQADSESSESLNFSEESPESPEDENSSSQEGLQSHSSSAESQSEESHSEEDDSDSQDSSRSKEDSNSTESKSSSEEDGQLKNIEIESRKLTVDAYHNKPIGDQDDNDCQDGY
As for B1, the “stoichiometry (DMP1:Factor H)” value in experiment [1] worked out at 1 mol/mol.

B2: recombinant human bone sialoprotein (rBSP) (ligand)
chain: FSMKNLHRRVKIEDSEENGVFKYRPRYYLYKHAYFYPHLKRFPVQGSSDSSEENGDDSSEEEEEEEETSNEGENNEESNEDEDSEAENTTLSATTLGYGEDATPGTGYTGLAAIQLPKKAGDITNKATKEKESDEEEEEEEEGNENEESEAEVDENEQGINGTSTNSTEAENGNGSSGGDNGEEGEEESVTGANAEGTTETGGQGKGTSKTTTSPNGGFEPTTPPQVYRTTSPPFGKTTTVEYEGEYEYTGVNEYDNGYEIYESENGEPRGDNYRAYEDEYSYFKGQGYDGYDGQNYYHHQ
modifications: post-translationally modified by the producing human marrow stromal fibroblasts (glycosylation, sulfation, phosphorylation; sites not stated)
notes: Range 17-317 follows the stated 16-residue leader; not checked against the listing; also called recombinant BSP; purified human BSP
As to B2, in experiment [2], the dissociation constant (Kd) is not above 1 nM and the “stoichiometry (BSP:Factor H)” value stood at 1 mol/mol. Further, the binding result in experiment [3] was “binds”.

The values above are taken from patent publication US6995018 (US Dept. of Health and Human Services, dated 2006).
